According to patent US20140148381A1 (INDIANA UNIVERSITY RESEARCH AND TECHNOLOGY, published 2014):

Assays:
[1] = target: HBV wild type core protein expressed in Huh7 cells (subtype ayw) (Hepatitis B virus, subtype ayw) (UniProt P03146); assay: cell-based or functional assay
[2] = target: HBV Cp149-WT (wild type HBV core protein assembly domain, N-terminal first 149 residues), dimer (Hepatitis B virus, adyw strain); assay: SEC of capsid and dimer after 72 h assembly at 100 mM NaCl, 23° C.; self-association of Cp149 dimers
[3] = target: HBV Cp149-WT (wild type HBV core protein assembly domain, N-terminal first 149 residues), dimer (Hepatitis B virus, adyw strain); assay: SEC of assembly reactions, 100 mM NaCl, 23° C.
[4] = target: HBV Cp149-WT (wild type HBV core protein assembly domain, N-terminal first 149 residues), dimer (Hepatitis B virus, adyw strain); assay: SEC of capsid and dimer after 72 h assembly at 100 mM NaCl, 23° C.; mean equilibrium dimer concentration
[5] = target: the molecule itself; assay: thermodynamic calculation from SEC, 23° C., 100 mM NaCl; 100 mM NaCl, 23° C.; value in the text, which differs from Table 3
[6] = target: the molecule itself; assay: SEC of assembly reactions, 100 mM NaCl, 72 h, 23° C.; 100 mM NaCl, 72 h, 23° C.; ratio of WT to V124W pseudo-critical concentration
[7] = target: the molecule itself; assay: SEC of capsid and dimer after 72 h assembly at 100 mM NaCl, 23° C.; self-association of Cp149-V124W dimers; 100 mM NaCl, 23° C., SEC after 72 h equilibration; Table 3 value

HBV V124W core protein expressed in Huh7 cells (subtype ayw) (from UniProt P03146 1-183)
dlDNA yield, Southern blot of encapsidated DNA, WT:V124W = 1:1 co-transfection in Huh7 cells [1]: 23 % of WT
rcDNA yield, Southern blot of encapsidated DNA, WT:V124W = 1:1 co-transfection in Huh7 cells [1]: 8 % of WT
ssDNA yield, Southern blot of encapsidated DNA, WT:V124W = 1:1 co-transfection in Huh7 cells [1]: 37 % of WT
total DNA yield, Southern blot of encapsidated DNA, WT:V124W = 1:1 co-transfection in Huh7 cells [1]: 31 % of WT

HBV Cp149-WT (wild type HBV core protein assembly domain, N-terminal first 149 residues), dimer
ΔGcontact [2]: -2.74 kcal/mol
pseudo-critical concentration [3]: 43.6 µM
KD, apparent [4]: 43.3 µM

B1: HBV Cp149-V124W (core protein assembly domain with V124W), dimer (other)
chain: MDIDPYKEFGATVELLSFLPSDFFPSVRDLLDTAAALYRDALESPEHCSPHHTALRQAILCWGDLMTLATWVGTNLEDPASRDLVVSYVNTNVGLKFRQLLWFHISCLTFGRETVLEYLVSFGWWIRTPPAYRPPNAPILSTLPETTVV
notes: also called HBV Cpdominant 1; Cpdominant 1
ΔGcont [5]: -3.73 kcal/mol
fold difference of pseudo-critical concentration against WT [6]: 40 fold
ΔGcontact [7]: -3.84 kcal/mol
